# Laboratory results as given in the nanobody polyreactivity screen of Harvey et al. (2022).
# Assay: yeast display, Sf9 membrane polyspecificity reagent, FACS + sequencing; frameworks hold sequencing errors
# How it was run: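 Polyreactivity labels are assigned by the sorting gate from which each nanobody was recovered. The gates were low and high (top ~1%), set on anti-HA fluorescence for expression and streptavidin fluorescence for reagent binding. Before sorting, galactose-induced (36–48 hours) yeast display cells were stained for 1 hour at 4 °C with 10% biotinylated, detergent-solubilized Sf9 membrane reagent.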
row,Sequence,polyreactivity (PSR sort gate)
1,QVQLVESGGGLVQAGGSLRLSCAASGFIFYSYALGWYRQAPGKEREFVASISGRTGSTYYADSVKGRFTISRDNAKNTVYLQMNSLKPEDTAVYYCNARIVHSFRYDYWGQGTQVTVSS,low polyreactivity
2,QVQLVESGGGLVQAGGSLRLSCAASGSIFSNYAMGGYRQAPGKERELVAAISRNGGSTSYADSVKGRFTISRDNAKNTVYLQMNSLKPEDTAVYYCAKRYKTAQYYYWGQGTQVTVSS,high polyreactivity
3,QVQLVESGGGLVQAGGSLRLSCAASGFIFYPYAMGWYRQAPGKEREVVAVITSGGRTYYADSVKGRFTISRDNAKNTVYLQMNSLKPEDTAVYYCAARYGRIHWKANWPEYGYWGQGTQVTVSS,low polyreactivity
4,QVQLVESGGGLVQAGGSLRLTCAASGSIFDYYAMGWYRQAHGKERELVAAISDSGSTYYADSVKGRFTISRDNAKNTVYVQMNSLKAEDTAVYYCAAVLWSPYRSEPLDTYEYWGQGTQVTVSS,low polyreactivity
5,QVQLVESGGGLVQAGGSLRLSCAASGITFARYTMGWYRQAPGKERELVAAITWSGGRTYYADSVKGRFTISRDNAKNTVYLQMNSLKPEDTAVYYCNVDLGRYGTSSGASVGYGDYDYWGQGTQVTVSS,high polyreactivity
6,QVQLVESGGGLVQAGGSLRLSCAASGSIFDVYDMGWYRQAPGKERELVASISDSGSSTYYADSVKGRFTISRDNAKNTVYLQMNSLKPEDTAVYYCAAGYYVDRSIYNYWGQGTQVTVSS,low polyreactivity
7,QVQLVESGGGLVQAGGSLRLSCAASGIIFPLYAMGWYRQAPGKERELVADITRGGSTYYADSVKGRFTISRDNAKNTVYLQMNSLKPEDTAVYYGNKQKRWTYSHYFPTTYDYWGQGTQVTVSS,high polyreactivity
8,QVQLVESGGGLVQAGGSLRLSCAASAFTFGYYAMGWYIQAPGKERELVAAISSGGNTNYADSVKGRFTISRDNAKNTVYLQMNSLKPEDTAVYYCNRRSWRYYKTYSAFNYWGQGSQVTVSS,high polyreactivity
9,QVQLVESGGGLVHAGGSLRLSCAASGSIFGYYTMGWYRQAPGKERELDAAITSGGSTNYADSVKGRFTISRDNAKNTVYLEMNSLKPEDTAVYYCAKVSYYPWRYDDWGQGTKVTVSS,low polyreactivity
10,QVQLVESGGGLVQAGGSLRISCAASGITFFRNAMGWYRQAPGKERELVATITKSGGSTYYADSVKGRFTISRDNAKNTVYLQMNSLKPEDTAVYDCAAVRRYPVKYVAYDYWGQGTQVTVSS,low polyreactivity
11,QVQLVESGGVLVQAGGSLRLSCAASGSIFWSNAMGWSRQAPGKERELVAAITTSDGSTYYADSVKGRFTISRDHAKNTVYLQMNSLKPEDSAVYYCAADASTWYTEEYWGQGTQVTVSS,low polyreactivity
12,QVQLVESGGGLVQAGGSLRLSCAASGRTFFPYAMGWYRQAAGKERELVDAISLDDDTTYYADSVKGRFTISRDTAQNTVYLQMNSLKPEDTAVYYCATDGIVIYGGYYTGYDYWGQGTQVTVSS,high polyreactivity
13,QVQLVESGGGLVQAGGSLRLSCAASGLTFVDYAMGWYRPAPGKERELVAGISYSGGSTYYADSVKGRFTISRDNAKNTVYLQMNSLKPEDTAVYYCAAKYRRPRYGYWGQGTQVTVSS,high polyreactivity
14,QVQLVESGGGLVQAGGSLRLSCAASGSIFNANAMGWYRQAPGKERELVARITRGGRTNYADSVKGRFTISLDNAKNSVYLQMNSLKPEDTAVYYCAAVYYVGFPHKYDYWGQGTQVTVSS,low polyreactivity
15,QVQLVESGGALVQAGGILRLSCAASGRTFQYNVMGWYRQAPGKEREFVAAITWNGGSTYYADSVKGRFTISRDKAKNTVYLQMISLKPEDPAVYYCAARWTKKLEYGYWGQGTQVTVSS,low polyreactivity
16,QVQLVESGGGLVQAGGSLRLSCAASGRTFTVYTMGWYRQAPGKERELVAVISTGGRTYYADSVKGRFTISRDNAKNTVYLQMNSLNPEDTAVYYCAAKFTREYYWGQGTQVTVSS,high polyreactivity
17,QVQLVESGGGLVQAGGSLRLSCAASGRIFDVYAMGWYRQAHGKERELVARISDGGGSTYYADSVKGRFTISRDNAKNTVYLQMNSLKPEDTAVYYCASGGDLRLDRRFAFVSRGDYWGQGTQVTVSS,low polyreactivity
